The experiment addresses purified human BAG3 protein (human, UniProt O95817 1-575). Briefly: peptide or protein array.

purified human BAG3 protein, sequence (O95817 whole entry): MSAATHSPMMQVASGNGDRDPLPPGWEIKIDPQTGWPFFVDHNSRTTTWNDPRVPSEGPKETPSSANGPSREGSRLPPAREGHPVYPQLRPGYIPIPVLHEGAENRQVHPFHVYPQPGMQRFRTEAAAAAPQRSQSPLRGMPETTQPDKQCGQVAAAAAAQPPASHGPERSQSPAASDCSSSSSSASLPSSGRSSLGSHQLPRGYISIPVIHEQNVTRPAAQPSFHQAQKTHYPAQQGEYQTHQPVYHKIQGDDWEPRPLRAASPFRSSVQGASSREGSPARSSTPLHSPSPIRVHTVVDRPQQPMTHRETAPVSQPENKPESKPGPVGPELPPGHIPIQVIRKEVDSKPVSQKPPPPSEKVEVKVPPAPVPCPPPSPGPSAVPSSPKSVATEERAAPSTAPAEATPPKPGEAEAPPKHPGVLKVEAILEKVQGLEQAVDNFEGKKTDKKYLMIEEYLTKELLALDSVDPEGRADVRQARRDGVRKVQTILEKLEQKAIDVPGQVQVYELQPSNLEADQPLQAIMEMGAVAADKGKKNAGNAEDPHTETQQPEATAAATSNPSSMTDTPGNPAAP

ICALFMLPLCLMVCQWRCLRCLRQQHDDFA (peptide, UniProt P56817 465-494, looked up) [I465-A494 region of human BACE1 (peptide array spots)]: the binding result is “binds”.

Values taken from paper PMC12101485 (Science Advances, 2025).
